Test results reported in the supplement of paper PMC9876800.

System: peptide library, one residue held at a place counted from the S/T acceptor
Assay: relative phosphorylation of the sub-library (ratio to the mean residue at this position); higher = residue favoured
Conditions: human
Procedure, shortened: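 Human or orthologue kinase constructs, purified and recombinant, were incubated under kinase-specific conditions in 384-well plates with biotinylated degenerate peptide sub-libraries. Each sub-library fixed one residue at one position around a central Ser/Thr. Incubations lasted 90 min with peptides at 50 μM and 50 μM ATP spiked with γ-32P-ATP, after which spots on streptavidin membranes were phosphorimaged and quantified by densitometry. Relative sub-library phosphorylation is a ratio to the mean residue at that position.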

Sequence of PLK3, construct: Full length (Q9H4B4 whole entry, looked up): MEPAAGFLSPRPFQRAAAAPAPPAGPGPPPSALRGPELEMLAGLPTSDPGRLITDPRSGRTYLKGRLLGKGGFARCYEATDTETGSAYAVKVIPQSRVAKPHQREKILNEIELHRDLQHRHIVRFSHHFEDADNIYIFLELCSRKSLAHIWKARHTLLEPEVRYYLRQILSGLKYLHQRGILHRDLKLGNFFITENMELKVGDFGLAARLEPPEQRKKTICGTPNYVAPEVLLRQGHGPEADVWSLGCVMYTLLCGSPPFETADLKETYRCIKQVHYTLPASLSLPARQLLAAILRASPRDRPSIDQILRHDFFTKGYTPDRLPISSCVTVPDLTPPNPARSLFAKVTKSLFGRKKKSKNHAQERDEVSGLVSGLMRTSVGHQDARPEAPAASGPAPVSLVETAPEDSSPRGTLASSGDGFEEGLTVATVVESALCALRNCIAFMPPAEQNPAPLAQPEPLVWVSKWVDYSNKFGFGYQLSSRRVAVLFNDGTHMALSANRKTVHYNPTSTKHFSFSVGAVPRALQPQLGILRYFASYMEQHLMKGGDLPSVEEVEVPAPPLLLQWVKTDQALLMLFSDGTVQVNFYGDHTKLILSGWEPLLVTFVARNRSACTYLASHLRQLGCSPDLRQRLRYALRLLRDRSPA
Sequence of GRK6, construct: Full length (P43250 whole entry, looked up): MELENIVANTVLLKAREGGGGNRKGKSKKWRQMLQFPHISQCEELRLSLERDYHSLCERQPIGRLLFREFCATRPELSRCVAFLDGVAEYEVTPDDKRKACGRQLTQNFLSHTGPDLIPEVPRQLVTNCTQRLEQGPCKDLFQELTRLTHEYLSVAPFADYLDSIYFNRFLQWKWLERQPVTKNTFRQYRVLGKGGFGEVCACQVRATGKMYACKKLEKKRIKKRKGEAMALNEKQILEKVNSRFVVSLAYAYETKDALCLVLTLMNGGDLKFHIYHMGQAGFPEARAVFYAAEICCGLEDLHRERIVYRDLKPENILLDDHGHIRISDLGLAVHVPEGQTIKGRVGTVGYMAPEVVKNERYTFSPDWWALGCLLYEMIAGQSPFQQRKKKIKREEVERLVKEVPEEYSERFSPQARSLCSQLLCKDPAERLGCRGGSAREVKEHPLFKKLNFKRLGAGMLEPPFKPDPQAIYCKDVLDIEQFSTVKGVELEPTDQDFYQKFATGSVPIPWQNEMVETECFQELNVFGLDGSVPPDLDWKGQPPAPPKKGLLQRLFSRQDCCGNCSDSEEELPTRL
Sequence of BMPR1B, construct: aa149-end (O00238 149-502, looked up): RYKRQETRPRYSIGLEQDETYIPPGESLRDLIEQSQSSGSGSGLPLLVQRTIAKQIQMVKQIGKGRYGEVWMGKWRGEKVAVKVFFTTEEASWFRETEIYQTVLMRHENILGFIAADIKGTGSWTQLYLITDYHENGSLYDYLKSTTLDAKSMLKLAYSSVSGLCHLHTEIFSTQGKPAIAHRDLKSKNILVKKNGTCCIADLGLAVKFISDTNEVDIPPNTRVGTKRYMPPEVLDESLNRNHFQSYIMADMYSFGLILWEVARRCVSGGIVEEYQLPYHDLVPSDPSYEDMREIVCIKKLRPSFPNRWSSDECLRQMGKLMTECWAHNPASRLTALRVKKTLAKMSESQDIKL

PLK3, construct: Full length (from UniProt Q9H4B4)
relative phosphorylation
Conditions	at +1	at +2	at +3	at +4	at -1	at -2	at -3	at -4	at -5
A fixed	0.585	0.878	0.681	0.695	0.828	0.711	0.85	0.948	1.07
D fixed	0.463	1.91	1.91	1.6	1.79	3.16	1.45	1.38	1.13
E fixed	0.565	1.84	2.75	1.82	1.45	1.99	3.4	1.38	1.09
F fixed	3.8	1.14	0.839	1.09	0.798	0.831	1.1	0.963	1.08
G fixed	0.491	0.475	0.766	0.819	0.519	0.688	0.865	1.05	1.16
H fixed	0.771	1.02	1.06	0.913	1.1	0.865	1.11	0.945	1.09
I fixed	0.989	1.01	0.724	0.928	0.886	0.364	0.515	0.905	0.795
K fixed	0.517	0.343	0.519	0.61	0.76	0.418	0.535	0.932	1.2
L fixed	1.06	0.92	0.831	1.21	0.966	0.654	1.08	1.1	0.85
M fixed	1.75	1.13	0.767	1.09	1.02	0.773	1.11	0.878	0.848
N fixed	0.526	0.973	1.16	0.935	1.3	2.15	0.842	1.02	1.11
P fixed	0.196	0.444	0.598	1.03	0.965	0.517	0.585	0.844	1.04
Q fixed	0.93	0.714	0.876	0.881	0.929	1.06	0.778	0.831	0.757
R fixed	0.87	0.56	0.642	0.706	1.06	0.592	0.597	0.906	1.13
V fixed	0.814	0.806	0.706	0.656	0.928	0.437	0.476	0.834	0.769
W fixed	1.04	1.51	1.1	1.12	0.566	0.654	0.934	1.19	0.964
Y fixed	1.62	1.34	1.07	0.888	1.12	1.13	0.768	0.89	0.931
pThr fixed	1.18	1.97	1.44	2.41	0.624	0.625	0.835	1.08	0.914
pTyr fixed	1.06	6.48	2.1	2.03	3.06	0.735	1.01	1.17	1.11

BMPR1B, construct: aa149-end (from UniProt O00238)
relative phosphorylation
Conditions	at +1	at +2	at +3	at +4	at -1	at -2	at -3	at -4	at -5
A fixed	1.07	1.39	1.01	0.984	0.997	0.924	1.21	1.09	1.34
D fixed	1.83	1.33	1.58	0.977	1.64	2.17	2.03	2.24	1.67
E fixed	5.67	1.49	1.56	1.15	1.77	6.66	2.3	1.75	1.49
F fixed	0.422	0.61	0.873	1	0.771	0.382	0.596	0.674	0.73
G fixed	0.798	1.57	0.953	1.03	0.637	0.725	1.14	1.26	1.2
H fixed	0.552	0.988	0.857	0.895	0.919	0.493	0.923	0.855	0.972
I fixed	0.631	0.606	0.753	0.984	0.833	0.496	0.586	0.704	0.681
K fixed	0.404	1.04	0.655	1.14	0.73	0.386	0.69	0.818	0.938
L fixed	0.503	0.727	0.935	0.888	1.1	0.553	0.663	0.733	0.766
M fixed	0.62	0.757	0.869	0.949	1.29	0.497	0.773	0.86	0.798
N fixed	0.743	0.911	0.961	0.926	0.901	0.679	1.08	0.92	1
P fixed	0.344	1.38	1.13	1.21	0.627	0.499	0.977	0.998	1.09
Q fixed	0.676	0.809	0.945	0.981	0.965	0.702	1.07	1.01	0.839
R fixed	0.48	0.842	0.891	0.924	0.791	0.439	0.803	0.801	0.869
V fixed	1.2	0.664	0.97	0.908	1.02	0.581	0.697	0.769	0.921
W fixed	0.519	0.897	1.01	1.02	0.844	0.397	0.659	0.744	0.892
Y fixed	0.528	0.985	1.04	1.04	1.17	0.415	0.795	0.764	0.799
pThr fixed	6.15	2.16	1.11	1.13	1.03	2.23	2.34	1.67	1.35
pTyr fixed	1.18	0.924	1.3	0.928	1.8	0.801	1.81	1.51	1.41

BCKDK, construct: Full length (from UniProt O14874)
relative phosphorylation
Conditions	at +1	at +2	at +3	at +4	at -1	at -2	at -3	at -4	at -5
A fixed	0.707	0.962	0.785	0.937	0.696	0.951	0.894	0.988	1.02
D fixed	0.393	1.11	2.51	0.922	1.32	0.571	0.616	0.717	0.856
E fixed	0.404	0.981	1.16	0.957	0.351	0.544	0.654	0.821	0.72
F fixed	0.915	0.909	1.11	1.13	0.742	1.19	1.26	1.14	1.18
G fixed	0.489	1.36	1.11	0.99	1.3	1.72	1.09	1.18	1.14
H fixed	0.698	1.31	0.929	0.973	1.69	1.33	1.17	1.14	1.26
I fixed	1.59	0.502	0.71	0.645	0.565	0.913	0.854	0.871	0.794
K fixed	0.483	0.704	0.538	0.577	0.425	0.901	0.8	0.886	1.02
L fixed	2.58	0.628	1.03	0.656	0.607	0.855	0.877	0.964	0.858
M fixed	2.1	0.966	0.889	0.781	0.577	1.05	1.01	1.1	0.962
N fixed	0.513	1.16	0.754	0.761	4.15	0.917	0.932	0.786	0.944
P fixed	0.404	0.61	0.831	1.08	0.432	0.866	0.976	1.05	0.819
Q fixed	0.69	1.17	0.749	0.724	0.619	0.867	0.804	0.75	0.678
R fixed	0.671	1.43	0.834	0.859	0.562	0.893	1.02	0.937	1.01
V fixed	1.84	0.553	0.641	0.709	0.514	0.699	0.734	0.791	0.879
W fixed	0.688	1.35	1.53	2.53	1.06	1.51	1.74	1.64	1.73
Y fixed	1.84	1.28	0.896	1.76	1.39	1.23	1.57	1.24	1.13
pThr fixed	0.535	0.616	0.681	0.682	0.541	0.847	0.904	0.931	0.896
pTyr fixed	0.502	0.681	0.53	1.46	0.581	0.994	1.31	1.14	0.896

GRK6, construct: Full length (from UniProt P43250)
relative phosphorylation
Conditions	at +1	at +2	at +3	at +4	at -1	at -2	at -3	at -4	at -5
A fixed	0.673	1.15	0.704	0.819	0.727	0.898	0.871	1.07	1.01
D fixed	1.13	1.55	2.51	2.04	1.42	0.993	1.73	1.37	1.41
E fixed	2.44	1.11	3.21	1.96	1.35	1.02	1.66	1.44	1.31
F fixed	1.1	0.983	0.866	0.826	0.903	1.19	0.803	0.781	1.03
G fixed	0.61	0.867	0.716	0.91	0.601	0.761	0.793	0.935	0.932
H fixed	0.721	0.978	0.758	0.914	1.35	0.895	0.92	1.01	0.988
I fixed	1.44	1.17	0.665	0.78	0.817	0.848	0.778	0.951	1.06
K fixed	0.654	0.7	0.59	0.796	0.854	0.878	0.806	0.955	0.873
L fixed	1.11	0.765	0.695	0.764	1.1	1.88	0.914	0.98	0.879
M fixed	1.25	0.954	0.78	0.946	0.948	1.09	0.852	0.953	0.882
N fixed	0.771	0.893	0.726	0.864	1.29	1.02	1.08	1.03	0.988
P fixed	0.36	0.512	0.631	1.16	0.692	0.599	0.716	0.88	0.864
Q fixed	1.03	0.763	0.653	0.852	0.82	0.87	0.899	0.887	0.775
R fixed	0.736	0.811	0.696	0.626	0.942	1.2	1.59	1	0.928
V fixed	1.24	1.43	0.821	0.763	0.947	0.766	0.713	0.844	1.06
W fixed	0.794	1.16	0.991	1.12	0.745	1.23	0.937	0.997	1.01
Y fixed	0.944	1.19	0.985	0.858	1.5	0.863	0.93	0.922	0.999
pThr fixed	2.88	1.34	1.58	3.36	0.96	1.16	2.9	1.6	1.52
pTyr fixed	3.28	1.43	1.67	2.06	1.5	1.51	1.82	1.82	1.7
